Results as given in PMC11215335.

Target: single-chain Fv antibody fragment 18B7
Assay: not stated; soluble scFv produced in the periplasm of E. coli (Fig. S2A)

Chain of single-chain Fv antibody fragment 18B7 (scFv) (VH): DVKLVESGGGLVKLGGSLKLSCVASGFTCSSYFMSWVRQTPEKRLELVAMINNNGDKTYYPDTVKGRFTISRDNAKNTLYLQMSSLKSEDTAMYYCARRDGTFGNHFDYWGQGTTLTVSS
Chain of single-chain Fv antibody fragment 18B7 (scFv) (VL): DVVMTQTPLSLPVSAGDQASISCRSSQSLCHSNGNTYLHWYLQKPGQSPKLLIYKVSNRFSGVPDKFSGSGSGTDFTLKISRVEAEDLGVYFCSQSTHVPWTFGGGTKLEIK

Which stoichiometry N does the source give for “single-chain Fv antibody fragment 18B7 (scFv)” here?
The stoichiometry N was 2.
